The record followed here is PMC9780223, “Structural insights into the covalent regulation of PAPP-A activity by proMBP and STC2” (Cell Discovery, 2022).

The chains are these.
B1: pregnancy-associated plasma protein A (PAPP-A), endogenous, from pregnant human plasma (enzyme, human (endogenous in pregnant plasma), UniProt Q13219 82-1627, looked up)
chain: EARGATEEPSPPSRALYFSGRGEQLRLRADLELPRDAFTLQVWLRAEGGQRSPAVITGLYDKCSYISRDRGWVVGIHTISDQDNKDPRYFFSLKTDRARQVTTINAHRSYLPGQWVYLAATYDGQFMKLYVNGAQVATSGEQVGGIFSPLTQKCKVLMLGGSALNHNYRGYIEHFSLWKVARTQREILSDMETHGAHTALPQLLLQENWDNVKHAWSPMKDGSSPKVEFSNAHGFLLDTSLEPPLCGQTLCDNTEVIASYNQLSSFRQPKVVRYRVVNLYEDDHKNPTVTREQVDFQHHQLAEAFKQYNISWELDVLEVSNSSLRRRLILANCDISKIGDENCDPECNHTLTGHDGGDCRHLRHPAFVKKQHNGVCDMDCNYERFNFDGGECCDPEITNVTQTCFDPDSPHRAYLDVNELKNILKLDGSTHLNIFFAKSSEEELAGVATWPWDKEALMHLGGIVLNPSFYGMPGHTHTMIHEIGHSLGLYHVFRGISEIQSCSDPCMETEPSFETGDLCNDTNPAPKHKSCGDPGPGNDTCGFHSFFNTPYNNFMSYADDDCTDSFTPNQVARMHCYLDLVYQGWQPSRKPAPVALAPQVLGHTTDSVTLEWFPPIDGHFFERELGSACHLCLEGRILVQYASNASSPMPCSPSGHWSPREAEGHPDVEQPCKSSVRTWSPNSAVNPHTVPPACPEPQGCYLELEFLYPLVPESLTIWVTFVSTDWDSSGAVNDIKLLAVSGKNISLGPQNVFCDVPLTIRLWDVGEEVYGIQIYTLDEHLEIDAAMLTSTADTPLCLQCKPLKYKVVRDPPLQMDVASILHLNRKFVDMDLNLGSVYQYWVITISGTEESEPSPAVTYIHGSGYCGDGIIQKDQGEQCDDMNKINGDGCSLFCRQEVSFNCIDEPSRCYFHDGDGVCEEFEQKTSIKDCGVYTPQGFLDQWASNASVSHQDQQCPGWVIIGQPAASQVCRTKVIDLSEGISQHAWYPCTISYPYSQLAQTTFWLRAYFSQPMVAAAVIVHLVTDGTYYGDQKQETISVQLLDTKDQSHDLGLHVLSCRNNPLIIPVVHDLSQPFYHSQAVRVSFSSPLVAISGVALRSFDNFDPVTLSSCQRGETYSPAEQSCVHFACEKTDCPELAVENASLNCSSSDRYHGAQCTVSCRTGYVLQIRRDDELIKSQTGPSVTVTCTEGKWNKQVACEPVDCSIPDHHQVYAASFSCPEGTTFGSQCSFQCRHPAQLKGNNSLLTCMEDGLWSFPEALCELMCLAPPPVPNADLQTARCRENKHKVGSFCKYKCKPGYHVPGSSRKSKKRAFKTQCTQDGSWQEGACVPVTCDPPPPKFHGLYQCTNGFQFNSECRIKCEDSDASQGLGSNVIHCRKDGTWNGSFHVCQEMQGQCSVPNELNSNLKLQCPDGYAIGSECATSCLDHNSESIILPMNVTVRDIPHWLNPTRVERVVCTAGLKWYPHPALIHCVKGCEPFMGDNYCDAINNRAFCNYDGGDCCTSTVKTKKVTPFPMSCDLQGDCACRDPQAQEHSRKDLRGYSHG
modifications: glycosylation sites assigned in the density (positions not given)
notes: pregnancy-associated plasma protein A, human, full-length mature PAPP-A, Arg1-Gly1547; numbers count on: the mature protein; source: purified from pregnant human plasma as the PAPP-A·proMBP complex (PEG6000, SOURCE-15Q, MonoS, Superose-6)

Data set [1] deals with the molecule itself. Put plainly: cryo-EM structure; PAPP-A·proMBP complex purified from pregnant human plasma, 0.2 mg/mL, in PBS pH 7.4; 2:2 map with C2 symmetry and half map after symmetry expansion.
Data set [2] deals with B1. The description is as above. The conditions noted are these: both partners purified.
Data set [3] addresses purified recombinant PAPP-A free of STC2 (apo PAPP-A) (human, UniProt Q13219 82-1627, fluorescently labeled with Protein Labeling Kit RED-NHS (in MST)). Briefly: MST; RED-NHS labeled PAPP-A (24 nM, mixed with an equal volume of ligand), ligand serially diluted; PBS with 0.05% Tween-20, room temperature, 30 min; 1:1 binding mode; n = 3. The conditions noted are these: both partners purified.

In general, stoichiometry N refers to the number of molecules, sites or subunits per partner or assembly. Take B1: the “stoichiometry N” value in data set [1] stood at 2.

B2: proform of eosinophil major basic protein (proMBP), endogenous, from pregnant human plasma (natural protein, human (endogenous in pregnant plasma), UniProt P13727 17-222, looked up)
chain: LHLRSETSTFETPLGAKTLPEDEETPEQEMEETPCRELEEEEEWGSGSEDASKKDGAVESISVPDMVDKNLTCPEEEDTVKVVGIPGCQTCRYLLVRSLQTFSQAWFTCRRCYRGNLVSIHNFNINYRIQCSVSALNQGQVWIGGRITGSGRCRRFQWVDGSRWNFAYWAAHQPWSRGGHCVALCTRGGHWRRAHCLRRLPFICSY
notes: proform of eosinophil major basic protein, human, encoded by PRG2; only residues 88-222 traced in the map, residues 1-87 invisible; Secreted proform; the signal peptide should be absent (surmise); Model built on PDB 1H8U; also called PM; PRG2; source: purified from pregnant human plasma as the PAPP-A·proMBP complex (PEG6000, SOURCE-15Q, MonoS, Superose-6)
Take B2: in data set [2], the binding result is “binds”.

B3: recombinant proMBP (modulator protein) (natural protein, UniProt P13727 17-222, looked up)
chain: LHLRSETSTFETPLGAKTLPEDEETPEQEMEETPCRELEEEEEWGSGSEDASKKDGAVESISVPDMVDKNLTCPEEEDTVKVVGIPGCQTCRYLLVRSLQTFSQAWFTCRRCYRGNLVSIHNFNINYRIQCSVSALNQGQVWIGGRITGSGRCRRFQWVDGSRWNFAYWAAHQPWSRGGHCVALCTRGGHWRRAHCLRRLPFICSY
notes: proform of eosinophil major basic protein, encoded by PRG2; construct not described; source: co-expressed with PAPP-A for the cleavage assay
In general, Kd refers to a measure of binding affinity in units of concentration. For B3, in data set [3], the Kd is around 6.15 µM.
